In the experiment the target is full-length hAPE1 (human apurinic/apyrimidinic endonuclease 1), recombinant, as immobilised for SPR (human, UniProt P27695 1-318). Nature of the experiment: SPR. (In general: In SPR one partner is held on a chip, and binding of the other changes the refractive index at the surface.)
Chain of full-length hAPE1 (human apurinic/apyrimidinic endonuclease 1), recombinant, as immobilised for SPR (P27695 whole entry): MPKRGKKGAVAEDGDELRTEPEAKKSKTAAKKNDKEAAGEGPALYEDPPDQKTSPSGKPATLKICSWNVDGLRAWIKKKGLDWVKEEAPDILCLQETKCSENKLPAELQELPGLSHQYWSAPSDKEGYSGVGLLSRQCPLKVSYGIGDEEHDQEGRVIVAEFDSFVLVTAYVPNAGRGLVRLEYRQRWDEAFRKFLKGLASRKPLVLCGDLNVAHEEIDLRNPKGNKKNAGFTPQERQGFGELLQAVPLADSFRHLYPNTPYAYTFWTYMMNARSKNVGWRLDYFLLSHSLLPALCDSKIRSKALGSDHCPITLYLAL

B1: N-terminal domain of NPM1 (residues 1-117) (domain or fragment, UniProt P06748 1-117, looked up)
chain: MEDSMDMDMSPLRPQNYLFGCELKADKDYHFKVDNDENEHQLSLRTVSLGAGAKDELHIVEAEAMNYEGSPIKVTLATLKMSVQPTVSLGGFEITPPVVLRLKCGSGPVHISGQHLV
The Kd is the free concentration of one partner at which half of the binding sites on the other are occupied at equilibrium, for simple one-to-one binding. Turning to B1, the Kd came out at 668 ± 5 nM.

The record behind these values is publication PMC3001066 (Nucleic Acids Research, 2010).
